Target: Urease beta subunit (urea amidohydrolase) (UreB) of H. pylori (H. pylori, UniProt P69996 1-569)
Assay: crystal structure

Urease beta subunit (urea amidohydrolase) (UreB) of H. pylori, sequence (P69996 whole entry): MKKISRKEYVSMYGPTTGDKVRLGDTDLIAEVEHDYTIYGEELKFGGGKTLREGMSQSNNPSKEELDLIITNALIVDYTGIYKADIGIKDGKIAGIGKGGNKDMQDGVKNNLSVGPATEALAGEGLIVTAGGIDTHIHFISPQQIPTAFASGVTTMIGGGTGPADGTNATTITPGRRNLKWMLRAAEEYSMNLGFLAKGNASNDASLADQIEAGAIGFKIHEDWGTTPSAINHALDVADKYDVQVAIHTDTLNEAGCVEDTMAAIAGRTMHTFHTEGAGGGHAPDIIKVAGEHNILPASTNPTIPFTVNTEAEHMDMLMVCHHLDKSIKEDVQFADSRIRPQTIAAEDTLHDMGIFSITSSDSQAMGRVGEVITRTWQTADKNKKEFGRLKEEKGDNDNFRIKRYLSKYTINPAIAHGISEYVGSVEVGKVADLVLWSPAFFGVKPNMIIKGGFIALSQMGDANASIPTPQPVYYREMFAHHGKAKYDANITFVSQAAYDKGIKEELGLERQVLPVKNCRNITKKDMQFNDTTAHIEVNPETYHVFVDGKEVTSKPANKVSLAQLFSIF

B1: Urease alpha subunit (UreA) (urea amidohydrolase) of H. pylori (natural protein)
chain: MKLTPKELDKLMLHYAGELAKKRKEKGIKLNYVEAVALISAHIMEEARAGKKTAAELMQEGRTLLKPDDVMDGVASMIHEVGIEAMFPDGTKLVTVHTPIEANGKLVPGELFLKNEDITINEGKKAVSVKVKNVGDRPVQIGSHFHFFEVNRCLDFDREKTFGKRLDIASGTAVRFEPGEEKSVELIDIGGNRRIFGFNALVDRQADNESKKIALHRAKERGFHGAKSDDNYVKTIKE
B1: binds.

Source: paper PMC6886524 (Journal of structural and functional genomics, 2015)
